Measurements as given in article PMC4739419, “Mutations in the nucleotide binding and hydrolysis domains of Helicobacter pylori MutS2 lead to altered biochemical activities and inactivation of its in vivo function” (BMC Microbiology, 2016).
Like-named read-outs stand apart in the source and are kept apart here.

How the values were obtained:
Holliday junction [1] = test: Nuclease assay (urea-PAGE); type: biochemical; conditions: for DNA cleavage rate: No nucleotide, DNA 1 nM, protein 150 nM, 37 °C
Experimental: (§1) Fig. 6 Effect of nucleotide cofactors on nuclease activity of HpMutS2 and mutants. Plots showing time dependent depletion of substrate DNA (a, b, c) Single-stranded DNA and d, e, f Holliday junction. DNA substrates (1 nM) were incubated with HpMutS2 and mutants (150 nM) at 37 °C. Reactions aliquots were removed at 0, 15, 30, 60, 90, and 120 min. The reactions were stopped using (50 mM EDTA + formamide dye) and the products were electrophoresed on urea-PAGE (15 %). The percentage reduction in substrate was calculated by considering DNA without protein as 100 %. Error bars represent standard deviation from two or more different experiments. (g, panel 1–6) Time dependent cleavage of Holliday junction by HpMutS2 and mutants. Reactions were performed as described in (A-F). Reactions aliquots were removed at 0, 15, 30, 60, 90, and 120 min
(§2) Radiolabeled DNA substrates were incubated with HpMutS2 and mutants in buffer D (50 mM Tris pH 8.0, 50 mM NaCl, 1 mM DTT, and 5 mM MgCl2). ATP, ADP, and ATPγS (1 mM each) were added separately to the reaction mixtures. 20 μl reaction aliquots were reomoved at 0, 15, 30, 60, 90, and 120 min. Reactions were stopped by adding EDTA (50 mM) + formammide dye (98 % formamide, 0.1 % bromophenol blue and 0.1 % xylene cyanol). The DNA substrates were denatured at 95 °C for 15 min and the reaction mixtures were separated on denaturing polyacrylamide gel (15 %) containing urea (7 M). The results were visualized and analysed as described earlier. DNA cleavage rates were estimated by dividing the total product formed (pM) in linear range of enzymatic activity by corresponding incubation time (min).

Single-stranded DNA [2] = test: Nuclease assay (urea-PAGE); type: biochemical; conditions: for DNA cleavage rate: No nucleotide, DNA 1 nM, protein 150 nM, 37 °C
Experimental: as §1, §2

Holliday junction [3] = test: Electrophoretic mobility shift assay (EMSA); type: binding; conditions: for Kd: read-out: DNA binding affinity (dissociation constant); for fold reduced affinity compared to wild-type: no nucleotide
Experimental: (§3) Fig. 5 Effect of nucleotide cofactors on DNA binding activity of HpMutS2 and mutants. Electrophoretic mobility shift assays were performed by incubating radiolabeled DNA substrates (0.16 nM) with increasing concentrations of proteins as described in Methods section. Nucleotides (1 mM) were added separately to the reaction mixtures. After incubation of 30 min on ice, the reaction mixtures were electrophoresed on native PAGE (8 %) at 4 °C. (a, panel 1–6) Interaction of HpMutS2 and mutants with single-stranded DNA. b-g Plots of percentage of bound DNA substrate (ssDNA and Holliday junction) versus protein concentration. The percentage binding was calculated by measuring the depletion in substrate DNA considering DNA without protein as 100 %. Error bars represent standard deviation from two or more different experiments. Schematic representation of DNA substrates used are shown at the left side of figures
(§4) Radiolabeled DNA substrates (0.16 nM) were incubated with increasing concentrations of HpMutS2 and mutants in buffer A with 1X BSA (0.1 μg/μl). ATP, ADP, and ATPγS (1 mM each) were added separately to the reaction mixture. The NaCl concentration was maintained to 110 mM by adding storage buffer C to the reaction mixture. After incubation of 30 min on ice, the reaction mixtures were electrophoresed on native PAGE (8 %) at 4 °C. The gels were transferred on to Whatman 3 mm paper and dried under vacuum at 80 °C for 45 min. The gels were visualized by phosphorimaging and quantified using Image Gauge (Version 3.0). The dissociation constants were determined by non-linear regression analysis and calculated by plotting the percentage of bound DNA versus concentration of protein using “One site - Specific binding with Hill slope” equation of the GraphPad Prism 5 software.

Single-stranded DNA [4] = test: Electrophoretic mobility shift assay (EMSA); type: binding; conditions: for fold reduced affinity compared to wild-type: no nucleotide; for Kd: read-out: DNA binding affinity (dissociation constant)
Experimental: as §3, §4

| Molecule | DNA cleavage rate (Holliday junction [1]) [pM/min] | DNA cleavage rate (Single-stranded DNA [2]) [pM/min] | Kd (Holliday junction [3]; + ADP 1 mM) [nM] | Kd (Holliday junction [3]; + ATP 1 mM) [nM] | Kd (Holliday junction [3]; No nucleotide) [nM] | fold reduced affinity compared to wild-type (Holliday junction [3]) | fold reduced affinity compared to wild-type (Single-stranded DNA [4]) | Kd (Single-stranded DNA [4]; + ADP 1 mM) [nM] | Kd (Single-stranded DNA [4]; No nucleotide) [nM] | also measured |
| --- | --- | --- | --- | --- | --- | --- | --- | --- | --- | --- |
| HpMutS2-E413A (enzyme, also called Walker-B mutant) MSDAPKRSLNPTLMMNNNNTPPKPLEESLDLKEFIALFKTFFAKERDTIALENDLKQTFTYLNEVDAIGLPTPKSVKESDLIIIKLTKLGTLHLDEIFEIVKRLHYIVVLQNAFKTFTHLKFHERLNAIVLPPFFNDLIALFDDEGKIKQGANATLDALNESLNRLKKESVKIIHHYARSKELAPYLVDTQSHLKHGYECLLLKSGFSGAIKGVVLERSANGYFYLLPESAQKIAQKIAQIGNEIDCCIVEMCQTLSHSLQKHLLFLKFLFKEFDFLDSLQARLNFAKAYNLEFVMPSFTQKKMILENFSHPILKEPKPLNLKFEKSMLAVTGVNAGGKTMLLKSLLSAAFLSKHLIPMKINAHHSIIPYFKEIHAIINDPQNSANNISTFAGRMKQFSALLSKENMLLGVDAIELGTDADEASSLYKTLLEKLLKQNNQIIITTHHKRLSVLMAENKEVELLAALYDEEKERPTYTFLKGVIGKSYAFETALRYGVPHFLIEKAKTFYGEDKEKLNVLIENSSALERELKQKNEHLENALKEQEYLKNAWLLEMEKQKEIFHNKKLELEKSYQQALNILKSEVASKDTSSMHKEIHKASEILSKHKTNQEIPQIITNFQANEKARYKNESVLIVQILDKGYYWIETELGMRLKAHGSLLKKIQKPPKNKFKPPKTTIPKPKEASLRLDLRGQRSEEALDLLDAFLNDALLGGFEEVLICHGKGSGILEKFVKEFLKNHPKVVSFSDAPINLGGSGVKIVKL | 4.92 ± 1.25 | 6.50 ± 0.55 | 46.4 ± 5.6 | 31.7 ± 3.34 | 30.8 ± 1.97 | ~ 2 fold | > 4 fold |  |  | fold reduced nuclease activity compared to wild-type (Holliday junction [1]; no nucleotide): ~ 4 fold; fold reduced nuclease activity compared to wild-type (Single-stranded DNA [2]; no nucleotide): ~ 4 fold |
| HpMutS2: Helicobacter pylori MutS2 (1-762), C-terminally His6-tagged wild-type protein, nuclease and ABC ATPase (protein, left off: His6, C-terminal, state not stated, Helicobacter pylori MutS2 (1-762), C-terminally His6-tagged wild-type protein, nuclease and ABC ATPase) MSDAPKRSLNPTLMMNNNNTPPKPLEESLDLKEFIALFKTFFAKERDTIALENDLKQTFTYLNEVDAIGLPTPKSVKESDLIIIKLTKLGTLHLDEIFEIVKRLHYIVVLQNAFKTFTHLKFHERLNAIVLPPFFNDLIALFDDEGKIKQGANATLDALNESLNRLKKESVKIIHHYARSKELAPYLVDTQSHLKHGYECLLLKSGFSGAIKGVVLERSANGYFYLLPESAQKIAQKIAQIGNEIDCCIVEMCQTLSHSLQKHLLFLKFLFKEFDFLDSLQARLNFAKAYNLEFVMPSFTQKKMILENFSHPILKEPKPLNLKFEKSMLAVTGVNAGGKTMLLKSLLSAAFLSKHLIPMKINAHHSIIPYFKEIHAIINDPQNSANNISTFAGRMKQFSALLSKENMLLGVDEIELGTDADEASSLYKTLLEKLLKQNNQIIITTHHKRLSVLMAENKEVELLAALYDEEKERPTYTFLKGVIGKSYAFETALRYGVPHFLIEKAKTFYGEDKEKLNVLIENSSALERELKQKNEHLENALKEQEYLKNAWLLEMEKQKEIFHNKKLELEKSYQQALNILKSEVASKDTSSMHKEIHKASEILSKHKTNQEIPQIITNFQANEKARYKNESVLIVQILDKGYYWIETELGMRLKAHGSLLKKIQKPPKNKFKPPKTTIPKPKEASLRLDLRGQRSEEALDLLDAFLNDALLGGFEEVLICHGKGSGILEKFVKEFLKNHPKVVSFSDAPINLGGSGVKIVKL | 26.49 ± 3.95 | 24.82 ± 1.15 | 22.6 ± 1.39 | 20.8 ± 2.95 | 14.4 ± 0.82 |  |  | 17.3 ± 2.89 | 21.5 ± 2.28 | fold reduction of Holliday junction cleavage rate by ADP (Holliday junction [1]; ADP 1 mM vs no nucleotide): ~ 1.5 fold; fold reduction of Holliday junction cleavage activity in presence of ADP compared to ATP (Holliday junction [1]; ADP vs ATP, 1 mM): ~ 2.1 fold; fold stimulation of Holliday junction cleavage rate by ATP (Holliday junction [1]; ATP 1 mM vs no nucleotide): ~ 1.5 fold; fold reduced nuclease activity in presence of ATPγS (Holliday junction [1]; ATPγS 1 mM vs no nucleotide): ~ 1.5 fold; Kd (Holliday junction [3]; + ATPγS 1 mM): 22.5 ± 1.23 nM; Kd (Single-stranded DNA [4]; + ATPγS 1 mM): 11.4 ± 0.19 nM; fold reduced ssDNA binding in presence of ATP (Single-stranded DNA [4]; ATP 1 mM, at lower concentrations of protein): ~ 5 fold |
| HpMutS2-G338R (protein) MSDAPKRSLNPTLMMNNNNTPPKPLEESLDLKEFIALFKTFFAKERDTIALENDLKQTFTYLNEVDAIGLPTPKSVKESDLIIIKLTKLGTLHLDEIFEIVKRLHYIVVLQNAFKTFTHLKFHERLNAIVLPPFFNDLIALFDDEGKIKQGANATLDALNESLNRLKKESVKIIHHYARSKELAPYLVDTQSHLKHGYECLLLKSGFSGAIKGVVLERSANGYFYLLPESAQKIAQKIAQIGNEIDCCIVEMCQTLSHSLQKHLLFLKFLFKEFDFLDSLQARLNFAKAYNLEFVMPSFTQKKMILENFSHPILKEPKPLNLKFEKSMLAVTGVNAGRKTMLLKSLLSAAFLSKHLIPMKINAHHSIIPYFKEIHAIINDPQNSANNISTFAGRMKQFSALLSKENMLLGVDEIELGTDADEASSLYKTLLEKLLKQNNQIIITTHHKRLSVLMAENKEVELLAALYDEEKERPTYTFLKGVIGKSYAFETALRYGVPHFLIEKAKTFYGEDKEKLNVLIENSSALERELKQKNEHLENALKEQEYLKNAWLLEMEKQKEIFHNKKLELEKSYQQALNILKSEVASKDTSSMHKEIHKASEILSKHKTNQEIPQIITNFQANEKARYKNESVLIVQILDKGYYWIETELGMRLKAHGSLLKKIQKPPKNKFKPPKTTIPKPKEASLRLDLRGQRSEEALDLLDAFLNDALLGGFEEVLICHGKGSGILEKFVKEFLKNHPKVVSFSDAPINLGGSGVKIVKL | 41.59 ± 9.53 | 40.19 ± 8.73 | 34 ± 5.31 | 32 ± 4.34 | 21.4 ± 0.93 | ~ 1.5 fold | ~ 1.5 fold | 23.9 ± 2.91 | 32.4 ± 3.32 | fold elevated nuclease activity compared to wild-type (Holliday junction [1]; no nucleotide): ~ 1.6 fold; fold elevated nuclease activity compared to wild-type (Single-stranded DNA [2]; no nucleotide): ~ 1.6 fold; Kd (Single-stranded DNA [4]; + ATP 1 mM): 30.7 ± 3.43 nM |
